Assay results as given in patent publication US20170051048A1 (ALDERBIO, published 2017).

Biological target: T1, Homo sapiens Beta-Nerve Growth Factor (beta-NGF) (Homo sapiens, UniProt P01138 122-241)
T1 construct: Biotinylated and held on neutravidin plates in the ELISA; also called huNGF; B-NGF
Assay: Antigen binding ELISA: biotinylated NGF on neutravidin plates, anti-human Fab-fragment HRP, OD 450 nm
Protocol: To identify and characterize antibodies and Fab fragments that bind to human NGF, antibody- and Fab-containing solutions were tested by ELISA. Briefly, neutravidin coated plates (Thermo Scientific), were blocked with ELISA buffer (0.1 mg/mL BSA, 1×PBS pH 7.4, 0.002% Tween 20 and 0.005% sodium azide) for 1 hr at room temperature. The plates were then coated with a 1 µg/mL biotinylated B-NGF solution in ELISA buffer for 1 hour at room temperature. This was followed by a wash step (3× using PBS plus 0.05% Tween 20) and a second block with ELISA buffer. The recombinant antibodies or Fabs were then added onto the plates and incubated for 1 hour at room temperature and then washed 3× with PBS/Tween solution. For development, an anti-human Fc-HRP or an anti-human Fab-fragment HRP (1:5000 dilution in ELISA buffer) was added onto the wells and incubated for 45 min at RT. After a 3× wash step with PBS/Tween solution, the plate was developed using TMB substrate for 3 minutes, stopped using 0.5M HCl, and read at 450 nm.

T1 sequence (P01138 122-241): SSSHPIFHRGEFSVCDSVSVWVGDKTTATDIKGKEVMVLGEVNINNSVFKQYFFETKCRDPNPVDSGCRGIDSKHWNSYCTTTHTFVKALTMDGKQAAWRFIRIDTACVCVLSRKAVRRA

B1: Antibody fragment Fab1 (Fab, V domains shown)
VH: EVQLVESGGGLVQPGGSLRLSCAASGFTVSNYAVGWVRQAPGKGLEWVGIIGRNGNTWYASSARGRFTISRDNSKNTLYLQMNSLRAEDTAVYYCARGYGRSVAYYVFNIWGPGTLVTVSS
VL: DIQMTQSPSTLSASVGDRVTITCQASQSIYSNLAWYQQKPGKAPKLLIYDASTLESGVPSRFSGSGSGTEYTLTISSLQPDDFATYYCQQGFTVSDIDNAFGGGTKVEIKR
- EC50: 0.4 nM
- EC50 (read off the curve): ~0.04 nM

B2: Antibody fragment Fab2 (Fab, V domains shown)
VH: EVQLVESGGGLVQPGGSLRLSCAASGFTVSNYAVGWVRQAPGKGLEWVGIIGRNGNTWYASSARGRFTISRDNSKNTLYLQMNSLRAEDTAVYYCARGYGRSVAYYVFNIWGPGTLVTVSS
VL: DIQMTQSPSTLSASVGDRVTITCQASQSIYSNLAWYQQKPGKAPKLLIYDASTLESGVPSRFSGSGSGTEYTLTISSLQPDDFATYYCQQGFTVSDIDNAFGGGTKVEIKR
- EC50: 0.8 nM
- EC50 (read off the curve): ~0.08 nM
